Test results published in patent publication US11045456.

Columns and labels:
[1] = target: nuclear factor-κB (NF-κB) p65 subunit, human, wild type (UniProt Q04206)
[2] = target: p65 phosphorylation-deficient mutant S276A (UniProt Q04206)
p65 mutant S536A = p65 mutant S536A (UniProt Q04206)
p65 mutant S536A, sequence (Q04206 whole entry S536A): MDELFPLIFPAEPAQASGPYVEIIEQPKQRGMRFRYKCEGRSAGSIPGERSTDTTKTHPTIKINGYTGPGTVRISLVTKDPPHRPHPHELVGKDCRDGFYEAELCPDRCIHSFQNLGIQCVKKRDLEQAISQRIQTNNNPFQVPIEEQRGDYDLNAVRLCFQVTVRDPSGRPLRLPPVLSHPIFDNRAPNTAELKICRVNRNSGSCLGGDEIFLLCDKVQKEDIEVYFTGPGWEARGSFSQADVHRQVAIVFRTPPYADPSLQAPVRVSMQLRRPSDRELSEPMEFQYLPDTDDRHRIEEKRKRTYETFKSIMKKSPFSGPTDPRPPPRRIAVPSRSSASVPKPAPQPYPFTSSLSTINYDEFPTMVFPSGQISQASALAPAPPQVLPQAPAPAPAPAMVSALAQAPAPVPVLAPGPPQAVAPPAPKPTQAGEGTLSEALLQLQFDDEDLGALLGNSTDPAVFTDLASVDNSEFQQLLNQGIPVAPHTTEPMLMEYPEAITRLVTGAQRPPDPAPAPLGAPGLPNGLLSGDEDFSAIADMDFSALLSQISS

nuclear factor-κB (NF-κB) p65 subunit, human, wild type, sequence (Q04206 whole entry): as the sequence (Q04206 whole entry S536A) above, with A536S counted along it
p65 phosphorylation-deficient mutant S276A, sequence (Q04206 whole entry S276A): as the sequence (Q04206 whole entry S536A) above, with S276A, A536S counted along it

Substance	NF-κB promoter activity [1]	phosphorylation of p65 (Phos-tag PAGE) [1]	NF-κB promoter activity [2]	intensity ratio of PKA-Cβ-induced phosphorylation (Phos-tag PAGE) (p65 mutant S536A)	intensity ratio of PKA-Cβ-induced phosphorylation (Phos-tag PAGE) [2]
PKA-Cβ1, human	Co-transfection with PKA-Cβ1 significantly enhanced the p65-induced NF-κB promoter activity	the overexpression of PKA-Cβ1, the major subtype of Cβ in BEAS-2B cells, induced the phosphorylation of p65, which was inhibited by H89	which was abrogated by co-expressing the S276A mutant of p65	–	–
protein kinase A catalytic subunit β (PKA-Cβ), human	–	–	–	The intensity ratio of PKA-Cβ-induced phosphorylation was decreased in S276A- and S536A-transfected cells compared to the wild-type p65-transfected cells	The intensity ratio of PKA-Cβ-induced phosphorylation was decreased in S276A- and S536A-transfected cells compared to the wild-type p65-transfected cells
